Source: paper PMC8809517, “Cofactor-independent RNA editing by a synthetic S-type PPR protein”
Positions count from the first letter of the chain named.

T1: GFP-9S library array, motif 4 ND N98V;D124H (synthetic construct, N98V;D124H)
T1 chain: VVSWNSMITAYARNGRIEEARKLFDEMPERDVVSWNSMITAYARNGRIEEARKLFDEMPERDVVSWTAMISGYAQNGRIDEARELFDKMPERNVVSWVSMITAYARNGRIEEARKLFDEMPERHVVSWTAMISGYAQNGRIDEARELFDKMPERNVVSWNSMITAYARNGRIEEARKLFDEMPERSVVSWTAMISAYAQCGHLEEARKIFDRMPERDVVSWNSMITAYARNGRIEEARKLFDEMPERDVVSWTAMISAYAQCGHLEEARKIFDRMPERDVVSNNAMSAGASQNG

T2: GFP-9S library array, motif 4 ND N98P;D124I (synthetic construct, N98P;D124I)
T2 chain: T1 chain with V98P, H124I

T3: GFP-9S library array, motif 4 ND N98E;D124T (synthetic construct, N98E;D124T)
T3 chain: T1 chain with V98E, H124T

T4: GFP-9S library array, motif 4 ND N98G;D124A (synthetic construct, N98G;D124A)
T4 chain: T1 chain with V98G, H124A

T5: GFP-9S library array, motif 4 ND N98Q;D124N (synthetic construct, N98Q;D124N)
T5 chain: T1 chain with V98Q, H124N


Legend:
Experiment in all cases: high-throughput RNA pulldown from lysate on Ni-NTA beads; HRP: 50 mM Tris pH 8, 150 mM NaCl, 1 mM beta-mercaptoethanol, 50 ug/ml BSA, 3 ug/ml yeast RNA, 0.5% heparin; ITC and FP: Tris pH 8, 200 mM KCl, 5% glycerol; MST: 50 mM Tris pH 8, 200 mM NaCl, 1 mM DTT, BSA, heparin, 0.05% Tween 20
Conditions in all cases: tags: N-terminal His-eGFP
[1] = biological target: T1, GFP-9S library array, motif 4 ND …
[2] = biological target: T2, GFP-9S library array, motif 4 ND …
[3] = biological target: T3, GFP-9S library array, motif 4 ND …
[4] = biological target: T4, GFP-9S library array, motif 4 ND …
[5] = biological target: T5, GFP-9S library array, motif 4 ND …

Binder	Kd ([1]; label: 5' IRDye 800CW) [nM]	Kd ([2]; label: 5' IRDye 800CW) [nM]	Kd ([3]; label: 5' IRDye 800CW) [nM]	Kd ([4]; label: 5' IRDye 800CW) [nM]	Kd ([5]; label: 5' IRDye 800CW) [nM]	Kd ([1]; label: 5' Cy5) [nM]	Kd ([2]; label: 5' Cy5) [nM]	Kd ([3]; label: 5' Cy5) [nM]	Kd ([4]; label: 5' Cy5) [nM]	Kd ([5]; label: 5' Cy5) [nM]
AUUAAACGUGA (ssRNA) [IR-rpoA-A]	209	272	339	133	118	–	–	–	–	–
AUUAGACGUGA (ssRNA) [Cy5-rpoA-G]	–	–	–	–	–	155	127	123	101	68.6
AUUAUACGUGA (ssRNA) [IR-rpoA-U]	219	187	476	175	99.2	–	–	–	–	–
AUUACACGUGA (ssRNA) [Cy5-rpoA]	–	–	–	–	–	160	109	130	124	94.7
